Results taken from patent US20180355059A1 (PHARMAEXPLORER, published 2018).

Tests used:
[1] = target: T1, recombinant human PCSK9-His protein (Immunogen A) (human, UniProt Q8NBP7 31-692, limits assumed, biotinylated in the ELISA assays); assay: ELISA of PCSK9 binding to LDLR ECD; antibody 0.06 nM
T1 construct: also called hPCSK9-His; His-tagged hPCSK9; not shown: His tag

[2] = target: T2, recombinant cyno monkey PCSK9 protein (cyno monkey, UniProt A8T666 31-692 (rhesus entry), limits assumed, biotinylated in the ELISA assays); assay: ELISA; antibody 0.067 nM
T2 construct: also called cyno PCSK9; Cyno Monkey PCSK9-His
T2 sequence (A8T666 31-692 limits assumed): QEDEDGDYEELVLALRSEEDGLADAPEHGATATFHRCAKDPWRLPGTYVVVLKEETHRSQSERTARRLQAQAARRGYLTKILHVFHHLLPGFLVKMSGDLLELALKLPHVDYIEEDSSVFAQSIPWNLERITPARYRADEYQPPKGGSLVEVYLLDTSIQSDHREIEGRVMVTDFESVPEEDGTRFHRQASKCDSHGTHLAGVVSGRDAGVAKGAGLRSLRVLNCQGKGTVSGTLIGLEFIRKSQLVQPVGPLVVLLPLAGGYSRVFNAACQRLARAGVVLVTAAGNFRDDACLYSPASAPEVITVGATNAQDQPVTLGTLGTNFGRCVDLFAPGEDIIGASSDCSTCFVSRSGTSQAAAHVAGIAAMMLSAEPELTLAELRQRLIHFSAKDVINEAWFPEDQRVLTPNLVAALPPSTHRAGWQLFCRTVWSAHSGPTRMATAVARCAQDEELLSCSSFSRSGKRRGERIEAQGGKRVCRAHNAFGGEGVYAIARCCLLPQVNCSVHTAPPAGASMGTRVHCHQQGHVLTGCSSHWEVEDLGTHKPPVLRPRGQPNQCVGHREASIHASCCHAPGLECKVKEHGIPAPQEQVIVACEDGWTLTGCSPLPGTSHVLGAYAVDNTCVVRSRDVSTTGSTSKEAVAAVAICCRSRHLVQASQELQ

[3] = target: T1, recombinant human PCSK9-His protein …; assay: SPR, Biacore T200; antibody captured by anti-human Fc
Experimental: Anti-human Fc IgG was immobilized on flow cells 1 and 2: HBS-EP+(10 mM HEPES, 150 mM NaCl, 3 mM EDTA, 0.05% P20, pH 7.4) was used as running buffer, and the immobilization of anti-human Fc IgG was carried out using the immobilization wizard template. Flow cells 1 and 2 of a Series S CM5 sensor chip were activated with freshly-mixed 50 mmol/L NHS and 200 mmol/L EDC. 20 ug/mL of anti-human Fc IgG diluted in 10 mM NaAC (pH 4.5) was injected into the activated flow cells 1 and 2. The remaining active coupling sites were blocked with 1M ethanolamine.
KD measurements were carried out with HBS-EP+ as the running buffer. Each antibody was injected over the CM5 sensor flow cell 2 with a flow rate of 10 uL/min to reach response 230 RU. […] Buffer flow was maintained for 400 seconds for dissociation measurements (30 uL/min). To remove the tested antibody from the surface, 10 mM glycine-HCl pH 1.5 was injected for 20 seconds (30 ulJmin). Flow cell 1 was used as reference flow cell. […] The KD value for each antibody was evaluated using Biacore T200 evaluation software 1.0, and the data was fit with a 1:1 binding model.

[4] = target: T1, recombinant human PCSK9-His protein …; assay: ELISA of PCSK9 binding to LDLR ECD; antibody 0.01 nM
[5] = target: T1, recombinant human PCSK9-His protein …; assay: ELISA; antibody 0.000067 nM
[6] = target: T2, recombinant cyno monkey PCSK9 protein; assay: ELISA; antibody 0.000067 nM
[7] = target: T2, recombinant cyno monkey PCSK9 protein; assay: ELISA; antibody 6.67 nM
[8] = target: T1, recombinant human PCSK9-His protein …; assay: ELISA; antibody 66.67 nM
[9] = target: T1, recombinant human PCSK9-His protein …; assay: ELISA; antibody 0.00067 nM
[10] = target: T2, recombinant cyno monkey PCSK9 protein; assay: ELISA; antibody 0 nM
[11] = target: T2, recombinant cyno monkey PCSK9 protein; assay: ELISA; antibody 0.0067 nM
[12] = target: T1, recombinant human PCSK9-His protein …; assay: ELISA of PCSK9 binding to LDLR ECD; antibody 0.32 nM
[13] = target: T1, recombinant human PCSK9-His protein …; assay: ELISA; antibody 0 nM
[14] = target: T1, recombinant human PCSK9-His protein …; assay: ELISA; antibody 0.67 nM
[15] = target: T2, recombinant cyno monkey PCSK9 protein; assay: ELISA; antibody 66.67 nM
[16] = target: T2, recombinant cyno monkey PCSK9 protein; assay: ELISA; antibody 0.67 nM
[17] = target: T1, recombinant human PCSK9-His protein …; assay: ELISA; antibody 0.0067 nM
[18] = target: T1, recombinant human PCSK9-His protein …; assay: ELISA of PCSK9 binding to LDLR ECD; antibody 200 nM
[19] = target: T2, recombinant cyno monkey PCSK9 protein; assay: ELISA; antibody 0.00067 nM
[20] = target: T1, recombinant human PCSK9-His protein …; assay: ELISA; antibody 6.67 nM
[21] = target: T1, recombinant human PCSK9-His protein …; assay: ELISA of PCSK9 binding to LDLR ECD; antibody 1.6 nM
[22] = target: T1, recombinant human PCSK9-His protein …; assay: ELISA of PCSK9 binding to LDLR ECD; antibody 0 nM
[23] = target: T1, recombinant human PCSK9-His protein …; assay: ELISA of PCSK9 binding to LDLR ECD; antibody 8 nM
[24] = target: T1, recombinant human PCSK9-His protein …; assay: ELISA of PCSK9 binding to LDLR ECD; antibody 40 nM
[25] = target: T1, recombinant human PCSK9-His protein …; assay: BLI, Octet Red 96; antibody on AHC sensor
Experimental: Dissociation constants were determined by Octed red 96 (Fortiebio). The detailed operation and methods were followed according to the specifications of the instrument provided by the manufacturer. Briefly, an AHC sensor (Anti-human Fc sensor, Fortiebio) was used for the affinity determination. The anti-PCSK9 antibody was diluted to 10 ug/mL in PBS buffer (pH7.4) containing 0.1% (w/w) BSA and 0.02% (v/v) Tween 20 and incubated with the AHC sensor. […] The reaction mixture was further incubated in PBS buffer (pH7.4) containing 0.1% (v/w) BSA and 0.02% (v/v) Tween 20 at 30° C. for 5 minutes.

[26] = target: T1, recombinant human PCSK9-His protein …; assay: ELISA; antibody 0.067 nM

B1: 96F8C6, fully human anti-PCSK9 antibody (antibody, human IgG1, V domains shown)
VH: EVQLVESGGGLVQPGGSLRLSCAASGITFSSYWMSWVRQAPGKGLEWVANIKQDGSEKYYVDSVKGRFTISRDIAKNSLYLQMNSLRAEDTAVYYCARDRGTYYYGSGSYNYYYYGMDVWGQGTTVTVSS
VL: not shown
notes: also called 98F8C6
- OD450 nm [1]: 2.43 OD450 nm
- OD450 nm [2]: 1.86 OD450 nm
- Kd [3]: 2.33 nM
- OD450 nm [4]: 2.38 OD450 nm
- OD450 nm [5]: 0.06 OD450 nm
- OD450 nm [6]: 0.08 OD450 nm
- OD450 nm [7]: 3 OD450 nm
- OD450 nm [8]: 3.06 OD450 nm
- OD450 nm [9]: 0.08 OD450 nm
- OD450 nm [10]: 0.06 OD450 nm
- OD450 nm [11]: 0.31 OD450 nm
- OD450 nm [12]: 2.45 OD450 nm
- OD450 nm [13]: 0.06 OD450 nm
- OD450 nm [14]: 3.09 OD450 nm
- OD450 nm [15]: 2.97 OD450 nm
- OD450 nm [16]: 2.99 OD450 nm
- OD450 nm [17]: 0.25 OD450 nm
- OD450 nm [18]: 2.4 OD450 nm
- OD450 nm [19]: 0.09 OD450 nm
- OD450 nm [20]: 3.1 OD450 nm
- OD450 nm [21]: 2.4 OD450 nm
- OD450 nm [22]: 2.4 OD450 nm
- OD450 nm [23]: 2.38 OD450 nm
- OD450 nm [24]: 2.38 OD450 nm
- Kd [25]: 3.63 nM
- OD450 nm [26]: 1.65 OD450 nm
